Test results as given in paper PMC5959238 (Genes & Development, 2018).
Non-standard residues stand in square brackets, D forms with d. No end group written: not given here. Tyr(3-I) = N[C@@H](Cc1ccc(O)c(I)c1)C(=O)O

Assays:
[1] = molecular target: T1, HIS-TEV-tagged CBP80(Δ2–23) (human, UniProt Q09161 24-790, Δ2–23); assay: pull-down
T1 sequence: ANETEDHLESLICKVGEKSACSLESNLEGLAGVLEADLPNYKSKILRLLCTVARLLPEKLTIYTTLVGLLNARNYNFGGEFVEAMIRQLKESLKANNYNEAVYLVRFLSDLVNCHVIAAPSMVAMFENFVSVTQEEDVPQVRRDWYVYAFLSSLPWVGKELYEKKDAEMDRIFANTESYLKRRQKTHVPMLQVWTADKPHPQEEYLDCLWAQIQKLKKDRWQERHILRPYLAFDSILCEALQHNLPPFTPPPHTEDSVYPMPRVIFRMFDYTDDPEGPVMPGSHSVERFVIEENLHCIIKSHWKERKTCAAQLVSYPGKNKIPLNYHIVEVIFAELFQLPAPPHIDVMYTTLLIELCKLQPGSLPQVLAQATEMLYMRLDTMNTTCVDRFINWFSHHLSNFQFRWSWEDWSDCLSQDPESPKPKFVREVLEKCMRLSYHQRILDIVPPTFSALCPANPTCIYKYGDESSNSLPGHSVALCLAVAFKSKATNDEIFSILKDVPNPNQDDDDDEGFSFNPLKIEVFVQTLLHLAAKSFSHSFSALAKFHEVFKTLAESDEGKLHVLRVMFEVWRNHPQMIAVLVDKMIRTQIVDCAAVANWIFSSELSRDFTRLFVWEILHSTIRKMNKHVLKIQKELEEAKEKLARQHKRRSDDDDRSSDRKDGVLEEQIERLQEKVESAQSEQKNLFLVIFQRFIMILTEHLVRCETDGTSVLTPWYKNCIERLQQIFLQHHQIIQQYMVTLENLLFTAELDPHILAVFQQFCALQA

[2] = molecular target: T1, HIS-TEV-tagged CBP80(Δ2–23); assay: crystal structure
[3] = molecular target: T2, cap-binding complex (CBC): preformed complex of CBP80–CBP20 (human, UniProt Q09161;P52298, Δ2–23); assay: crystal structure
T2 sequence 1: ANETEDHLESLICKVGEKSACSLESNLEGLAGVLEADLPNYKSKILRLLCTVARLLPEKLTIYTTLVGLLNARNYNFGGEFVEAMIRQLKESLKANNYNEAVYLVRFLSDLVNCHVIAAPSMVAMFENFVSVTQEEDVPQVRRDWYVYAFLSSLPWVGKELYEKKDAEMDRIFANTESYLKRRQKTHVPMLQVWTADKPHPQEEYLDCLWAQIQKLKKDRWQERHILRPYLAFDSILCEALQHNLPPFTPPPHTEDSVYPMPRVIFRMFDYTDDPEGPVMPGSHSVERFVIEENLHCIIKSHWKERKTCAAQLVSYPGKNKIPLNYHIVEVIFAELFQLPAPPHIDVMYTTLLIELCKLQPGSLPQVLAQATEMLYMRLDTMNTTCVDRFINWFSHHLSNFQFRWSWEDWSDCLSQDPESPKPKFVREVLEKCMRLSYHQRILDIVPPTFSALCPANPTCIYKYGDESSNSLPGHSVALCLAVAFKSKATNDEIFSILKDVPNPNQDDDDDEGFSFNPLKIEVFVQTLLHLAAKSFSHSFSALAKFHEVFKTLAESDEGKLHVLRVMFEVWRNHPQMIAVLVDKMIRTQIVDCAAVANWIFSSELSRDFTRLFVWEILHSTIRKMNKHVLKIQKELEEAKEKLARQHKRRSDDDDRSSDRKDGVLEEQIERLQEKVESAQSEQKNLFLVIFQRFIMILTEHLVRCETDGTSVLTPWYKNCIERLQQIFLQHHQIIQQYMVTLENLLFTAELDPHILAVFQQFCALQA
T2 sequence 2: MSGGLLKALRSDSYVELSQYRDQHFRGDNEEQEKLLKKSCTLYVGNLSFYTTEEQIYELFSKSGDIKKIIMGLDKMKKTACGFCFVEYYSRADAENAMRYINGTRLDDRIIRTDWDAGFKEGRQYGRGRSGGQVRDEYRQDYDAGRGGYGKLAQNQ

[4] = molecular target: T2, cap-binding complex (CBC): preformed …; assay: fluorescence polarisation

PASGKSKYEAMDFDSLLKEAQQSLH (domain or fragment) [PGC-1β amino acids 999–1023]: binds [1].

B1: CBP20 (natural protein)
chain: MSGGLLKALRSDSYVELSQYRDQHFRGDNEEQEKLLKKSCTLYVGNLSFYTTEEQIYELFSKSGDIKKIIMGLDKMKKTACGFCFVEYYSRADAENAMRYINGTRLDDRIIRTDWDAGFKEGRQYGRGRSGGQVRDEYRQDYDAGRGGYGKLAQNQ
B1: binds [2].

Ac-SEEALPASGKSK[Tyr(3-I)]EAMDFDSLLKEAQQSLH (not fully specified) [synthetic PGC-1β peptide spanning amino acids 994–1023]: binds [2]; binds [3].

MDFDSLLKEAQQS [PGC-1β peptide, amino acids 1009–1021]: binds [4].

MDFDSLLKEGQQS [PGC-1β-10G]: binds [4].
